In publication PMC2874613 (Traffic (Copenhagen, Denmark), 2010):

T1: GST-[1-313]GGA3 (UniProt Q9NZ52 1-313)
T1 sequence (looked up): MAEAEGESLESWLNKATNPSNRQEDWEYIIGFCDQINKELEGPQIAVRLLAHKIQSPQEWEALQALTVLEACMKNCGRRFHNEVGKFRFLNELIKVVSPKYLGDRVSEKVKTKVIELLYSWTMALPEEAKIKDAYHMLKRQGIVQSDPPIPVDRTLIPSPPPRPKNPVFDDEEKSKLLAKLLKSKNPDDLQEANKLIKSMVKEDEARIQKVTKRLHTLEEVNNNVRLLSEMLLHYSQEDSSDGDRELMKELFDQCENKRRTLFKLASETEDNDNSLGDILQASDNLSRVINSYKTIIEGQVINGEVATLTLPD

B1: Arf1 expressed in HEK293T cells (human Arf1/pcDNA3.1) (natural protein)
chain: not shown
B2: Arf1-GFP expressed in HEK293T cells (human Arf1/pEGFPN1) (natural protein)
chain: not shown
B3: Arf1-HA expressed in HEK293T cells (natural protein)
chain: not shown

Each binder was assayed against T1, GST-[1-313]GGA3 (assay: pull-down).

percent of total Arf precipitated with GST-[1-313]GGA3 | Binder
< 0.15 % of the total | B1
> 0.3 % of the total | B2
< 0.15 % of the total | B3
